In experiment [1] the target is T1, human GLP-1 receptor (human, UniProt P43220 24-463).
T1 construct: whole, on cells; also called hGLP-1R; hGLP1R
The experiment is described as follows: [125I]-GLP-1 competition SPA, hGLP-1R membranes. The essentials: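 Competition binding in 25 mM HEPES pH 7.4, 2.5 mM CaCl₂, 1 mM MgCl₂, 0.1% bacitracin, 0.003% TWEEN-20, EDTA-free protease inhibitors. IC₅₀ from four-parameter nonlinear fit; Kᵢ given as geometric mean ± SEM, n = independent replicates on different days.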

The target in experiment [2] is T2, human GIP receptor (human, UniProt P48546 22-466).
T2 construct: whole, on cells; also called hGIPR; hGIP-R
T2 sequence (looked up): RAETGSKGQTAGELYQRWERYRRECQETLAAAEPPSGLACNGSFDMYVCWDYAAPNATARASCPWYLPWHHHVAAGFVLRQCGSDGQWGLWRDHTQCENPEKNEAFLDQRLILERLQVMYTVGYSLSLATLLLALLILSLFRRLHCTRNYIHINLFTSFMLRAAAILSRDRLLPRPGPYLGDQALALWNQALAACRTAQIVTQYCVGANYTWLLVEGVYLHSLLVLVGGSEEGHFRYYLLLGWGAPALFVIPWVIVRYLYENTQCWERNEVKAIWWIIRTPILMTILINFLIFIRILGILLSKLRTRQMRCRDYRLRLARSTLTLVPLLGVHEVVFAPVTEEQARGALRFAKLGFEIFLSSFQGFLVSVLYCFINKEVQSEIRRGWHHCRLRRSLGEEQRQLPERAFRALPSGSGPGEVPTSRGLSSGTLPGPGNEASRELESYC
In words: [125I]-GIP competition SPA, hGIPR membranes.

For experiment [3], the target named is T3, human glucagon receptor (human, UniProt P47871 26-477).
T3 construct: whole, on cells; also called hGcgR; GcgR
In words: [125I]-Gcg competition SPA, hGcgR membranes.

Numbered stars: 1 amine (or outer) side, 2 acyl side, 3 side chain; on linkers, the order of the positions; unused ones are H or OH. Square brackets hold non-standard residues; d marks the D form. Side chains are listed from the residue outwards. Ends that are not written are not given here. * marks the point of attachment. C20 diacid = O=C(O)CCCCCCCCCCCCCCCCCCC(=O)*; C18 diacid = O=C(O)CCCCCCCCCCCCCCCCC(=O)*; γGlu = O=C(O)[C@H](CCC(=O)[*:2])N[*:1]; AEEA = NCCOCCOCC(=O)O; Aib = CC(C)(N)C(=O)O

Broadly, the Ki is the equilibrium dissociation constant of an inhibitor or competing ligand from its target. Lower therefore signals higher affinity.

T3 sequence (P47871 26-477): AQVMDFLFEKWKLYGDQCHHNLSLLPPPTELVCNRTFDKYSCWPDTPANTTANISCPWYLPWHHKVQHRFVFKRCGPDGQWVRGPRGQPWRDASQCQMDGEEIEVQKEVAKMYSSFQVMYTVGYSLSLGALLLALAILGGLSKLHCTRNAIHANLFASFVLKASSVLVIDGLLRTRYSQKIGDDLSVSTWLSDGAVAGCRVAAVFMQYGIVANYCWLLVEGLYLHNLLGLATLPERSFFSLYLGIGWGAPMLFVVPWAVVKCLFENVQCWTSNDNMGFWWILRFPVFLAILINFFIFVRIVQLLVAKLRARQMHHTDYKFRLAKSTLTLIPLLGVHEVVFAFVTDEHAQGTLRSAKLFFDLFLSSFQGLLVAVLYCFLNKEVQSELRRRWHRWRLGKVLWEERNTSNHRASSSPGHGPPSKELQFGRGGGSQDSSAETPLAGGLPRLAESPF

B1: Example 290 (peptide)
peptide: XXEGTFTSDYSIXLDKKAQXEFIEYLIAGGPSSGAPPPS
modifications: D-Tyr1; Aib2; αMeL13; K17((2-[2-(2-Amino-ethoxy)-ethoxy]-acetyl)2-(γ-Glu)-CO-(CH2)18-CO2H); Aib20; C-terminal NH2
Consider B1, for which the Ki is 2.44 nM in experiment [1], 0.0617 nM in experiment [2] and 308 nM in experiment [3].

B2: Example 323 (peptide)
peptide: YXEGTFTSDYSIXLDEKAQXAFIEYLIEGGPSSGAPPPS
modifications: Aib2; αMeL13; K17((2-[2-(2-Amino-ethoxy)-ethoxy]-acetyl)2-(γ-Glu)-CO-(CH2)16-CO2H); Aib20; C-terminal NH2
Regarding B2, the Ki in experiment [1] was determined as 1.65 nM; in experiment [2], 0.0516 nM; in experiment [3] it was 300 nM.

B3: Example 337 (peptide)
peptide: FXEGTFTSDYSIXLDKKAQXAFIEYLIAGGPSSGAPPPS
modifications: Aib2; αMeL13; K17((2-[2-(2-Amino-ethoxy)-ethoxy]-acetyl)2-(γ-Glu)-CO-(CH2)18-CO2H); Aib20; C-terminal NH2
On to B3, for which the inhibition constant Ki is 1.61 nM in experiment [1], 0.0363 nM in experiment [2] and 335 nM in experiment [3].

B4: Example 332 (peptide)
peptide: YXEGTFTSDYSIXLDEKAQXAFIEYLIAGGPSSGAPPPS
modifications: Aib2; αMeL13; K17((2-[2-(2-Amino-ethoxy)-ethoxy]-acetyl)2-(γ-Glu)-CO-(CH2)18-CO2H); Aib20; C-terminal NH2
As for B4, the values for the Ki in experiment [1], in experiment [2] and in experiment [3] were 7.87 nM, 0.0497 nM and 397 nM, respectively.

B5: Example 341 (peptide)
peptide: XXEGTFTSDYSIXLDEKAQXAFIEYLIAGGPSSGAPPPS
modifications: D-Tyr1; Aib2; αMeL13; K17((2-[2-(2-Amino-ethoxy)-ethoxy]-acetyl)2-(γ-Glu)-CO-(CH2)18-CO2H); Aib20; C-terminal NH2
Turning to B5, the inhibition constant (Ki) was 6.49 nM in experiment [1], 0.0559 nM in experiment [2] and 39.7 nM in experiment [3].

B6: Example 339 (peptide)
peptide: YXEGTFTSDYSIXLDKKAQXEFIEYLIAGGPSSGAPPPS
modifications: Aib2; αMeL13; K17((2-[2-(2-Amino-ethoxy)-ethoxy]-acetyl)-(γ-Glu)-CO-(CH2)18-CO2H); Aib20; C-terminal NH2
B6: the values for the Ki in experiment [1], in experiment [2] and in experiment [3] were 2.69 nM, 0.0388 nM and 873 nM, respectively.

B7: Example 334 (peptide)
peptide: XXEGTFTSDYSIXLDKKAQXAFIEYLIEGGPSSGAPPPS
modifications: D-Tyr1; Aib2; αMeL13; K17((2-[2-(2-Amino-ethoxy)-ethoxy]-acetyl)2-(γ-Glu)-CO-(CH2)18-CO2H); Aib20; C-terminal NH2
As to B7, the Ki in experiment [1] was 2.17 nM; in experiment [2], 0.0646 nM; in experiment [3] it was 192 nM.

B8: Example 273 (peptide)
peptide: Y[Aib]EGTFTSDYSILLDKK([AEEA-AEEA-γGlu-C18 diacid])AQ[Aib]AFIEYLIAGG-NH2
modifications: N-terminus assumed
SMILES: CC[C@H](C)[C@H](NC(=O)[C@H](CC(C)C)NC(=O)[C@H](Cc1ccc(O)cc1)NC(=O)[C@H](CCC(=O)O)NC(=O)[C@@H](NC(=O)[C@H](Cc1ccccc1)NC(=O)[C@H](C)NC(=O)C(C)(C)NC(=O)[C@H](CCC(N)=O)NC(=O)[C@H](C)NC(=O)[C@H](CCCCNC(=O)COCCOCCNC(=O)COCCOCCNC(=O)CC[C@H](NC(=O)CCCCCCCCCCCCCCCCC(=O)O)C(=O)O)NC(=O)[C@H](CCCCN)NC(=O)[C@H](CC(=O)O)NC(=O)[C@H](CC(C)C)NC(=O)[C@H](CC(C)C)NC(=O)[C@@H](NC(=O)[C@H](CO)NC(=O)[C@H](Cc1ccc(O)cc1)NC(=O)[C@H](CC(=O)O)NC(=O)[C@H](CO)NC(=O)[C@@H](NC(=O)[C@H](Cc1ccccc1)NC(=O)[C@@H](NC(=O)CNC(=O)[C@H](CCC(=O)O)NC(=O)C(C)(C)NC(=O)[C@@H](N)Cc1ccc(O)cc1)[C@@H](C)O)[C@@H](C)O)[C@@H](C)CC)[C@@H](C)CC)C(=O)N[C@@H](C)C(=O)NCC(=O)NCC(N)=O
As to B8, the figures for the inhibition constant (Ki) in experiment [1], in experiment [2] and in experiment [3] were 1.13 nM, 0.0698 nM and 724 nM, respectively.

B9: Example 288 (peptide)
peptide: Y[Aib]EGTFTSDYSILLDKK([AEEA-AEEA-γGlu-C20 diacid])AQ[Aib]AFIEYLIAGGPSSGAPPPS-NH2
modifications: N-terminus assumed
SMILES: CC[C@H](C)[C@H](NC(=O)[C@H](CC(C)C)NC(=O)[C@H](Cc1ccc(O)cc1)NC(=O)[C@H](CCC(=O)O)NC(=O)[C@@H](NC(=O)[C@H](Cc1ccccc1)NC(=O)[C@H](C)NC(=O)C(C)(C)NC(=O)[C@H](CCC(N)=O)NC(=O)[C@H](C)NC(=O)[C@H](CCCCNC(=O)COCCOCCNC(=O)COCCOCCNC(=O)CC[C@H](NC(=O)CCCCCCCCCCCCCCCCCCC(=O)O)C(=O)O)NC(=O)[C@H](CCCCN)NC(=O)[C@H](CC(=O)O)NC(=O)[C@H](CC(C)C)NC(=O)[C@H](CC(C)C)NC(=O)[C@@H](NC(=O)[C@H](CO)NC(=O)[C@H](Cc1ccc(O)cc1)NC(=O)[C@H](CC(=O)O)NC(=O)[C@H](CO)NC(=O)[C@@H](NC(=O)[C@H](Cc1ccccc1)NC(=O)[C@@H](NC(=O)CNC(=O)[C@H](CCC(=O)O)NC(=O)C(C)(C)NC(=O)[C@@H](N)Cc1ccc(O)cc1)[C@@H](C)O)[C@@H](C)O)[C@@H](C)CC)[C@@H](C)CC)C(=O)N[C@@H](C)C(=O)NCC(=O)NCC(=O)N1CCC[C@H]1C(=O)N[C@@H](CO)C(=O)N[C@@H](CO)C(=O)NCC(=O)N[C@@H](C)C(=O)N1CCC[C@H]1C(=O)N1CCC[C@H]1C(=O)N1CCC[C@H]1C(=O)N[C@@H](CO)C(N)=O
notes: also called GG-709
With B9, the values for the inhibition constant (Ki) in experiment [1], in experiment [2] and in experiment [3] were 1.6 nM, 0.058 nM and 345 nM, respectively.

B10: Example 326 (peptide)
peptide: F[Aib]EGTFTSDYSILLDKK([AEEA-AEEA-γGlu-C20 diacid])AQ[Aib]AFIEYLIEGGPSSGAPPPS-NH2
Turning to B10, the figures for the inhibition constant Ki in experiment [1], in experiment [2] and in experiment [3] were 2.92 nM, 0.251 nM and 207 nM, respectively.

B11: Example 294 (peptide)
peptide: Y[Aib]EGTFTSDYSILLDKK([AEEA-AEEA-γGlu-C18 diacid])AQQAFIEYLIEGG-NH2
modifications: N-terminus assumed
SMILES: CC[C@H](C)[C@H](NC(=O)[C@H](CC(C)C)NC(=O)[C@H](Cc1ccc(O)cc1)NC(=O)[C@H](CCC(=O)O)NC(=O)[C@@H](NC(=O)[C@H](Cc1ccccc1)NC(=O)[C@H](C)NC(=O)[C@H](CCC(N)=O)NC(=O)[C@H](CCC(N)=O)NC(=O)[C@H](C)NC(=O)[C@H](CCCCNC(=O)COCCOCCNC(=O)COCCOCCNC(=O)CC[C@H](NC(=O)CCCCCCCCCCCCCCCCC(=O)O)C(=O)O)NC(=O)[C@H](CCCCN)NC(=O)[C@H](CC(=O)O)NC(=O)[C@H](CC(C)C)NC(=O)[C@H](CC(C)C)NC(=O)[C@@H](NC(=O)[C@H](CO)NC(=O)[C@H](Cc1ccc(O)cc1)NC(=O)[C@H](CC(=O)O)NC(=O)[C@H](CO)NC(=O)[C@@H](NC(=O)[C@H](Cc1ccccc1)NC(=O)[C@@H](NC(=O)CNC(=O)[C@H](CCC(=O)O)NC(=O)C(C)(C)NC(=O)[C@@H](N)Cc1ccc(O)cc1)[C@@H](C)O)[C@@H](C)O)[C@@H](C)CC)[C@@H](C)CC)C(=O)N[C@@H](CCC(=O)O)C(=O)NCC(=O)NCC(N)=O
With B11, the figures for the inhibition constant Ki in experiment [1], in experiment [2] and in experiment [3] were 2.92 nM, 0.205 nM and 629 nM, respectively.

(Values after patent US20200024322A1 (Eli Lilly, published 2020).)
